1 substance from patent US20230374088A1 can be followed below.

Some results are limits rather than exact numbers.

The target in the experiment is mNeonGreen-tagged full length Gli2 (human) (UniProt P10070). In words: cell-based or functional assay.

With “mRuby-tagged Kif7-CC (460-600aa) with ER localization signal (from UniProt Q2M1P5 460-600)”, the amount of Gli2 in the nucleus as a percentage of total Gli expression (mNeonGreen intensity), HeLa cells was < 25%.
